# Test results reported in patent publication US20160031974A1 (UCB, published 2016).
# T1: Human OX40 expressed on the cell surface (activated human CD4+ OX40+ T cells) (human, UniProt P43489 29-277)
# T1 construct: whole, on cells; Also used as the target for the functional assays on human PBMC; also called cell-surface expressed OX40
# T1 sequence (looked up): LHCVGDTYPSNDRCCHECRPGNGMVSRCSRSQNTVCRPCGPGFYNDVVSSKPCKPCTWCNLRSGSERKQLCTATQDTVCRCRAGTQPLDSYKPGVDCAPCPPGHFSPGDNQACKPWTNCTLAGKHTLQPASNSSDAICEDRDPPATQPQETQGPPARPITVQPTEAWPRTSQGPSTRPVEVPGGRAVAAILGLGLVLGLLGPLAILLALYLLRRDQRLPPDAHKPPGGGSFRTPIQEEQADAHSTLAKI
# T2: Human OX40 (soluble analyte in BIAcore) (human, UniProt P43489 29-214, limits assumed)
# T2 construct: also called hOX40
# T2 sequence (looked up): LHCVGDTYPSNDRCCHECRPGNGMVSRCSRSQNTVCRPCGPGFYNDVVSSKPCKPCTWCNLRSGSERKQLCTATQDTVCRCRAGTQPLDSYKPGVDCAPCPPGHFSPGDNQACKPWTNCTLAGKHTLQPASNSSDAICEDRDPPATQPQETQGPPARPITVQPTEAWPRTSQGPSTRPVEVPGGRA
# What was measured:
# [1] = biological target: T1, Human OX40 expressed on the cell …; experiment: flow cytometry ligand-blocking assay on activated human CD4+ OX40+ T cells; blocked ligand: recombinant OX40L (biotinylated CD252 muCD8)
# Description: (§1) The capacity of A26 Fab-dsFv to block the interaction between cell-surface expressed OX40 and recombinant OX40L was measured using a flow cytometry-based ligand blocking assay. Briefly, activated human CD4⁺OX40⁺ T cells were pre-incubated with a titration of A26 Fab-Fv. Recombinant OX40L was subsequently added to the cells and allowed to bind in the presence of A26 Fab-dsFv. The proportion of OX40L bound was then detected by flow cytometry using a labelled secondary reagent.
# (§2) PBMC were isolated by separation on a Ficoll gradient and activated with 4 μg/mL PHA-L (Sigma) for 3 days at 37° C., 5% CO₂, 100% humidity. CD4⁺ T cells were then purified from the culture by negative selection using MACS columns (Miltenyi Biotech, CD4⁺ T cell isolation kit II). 2×10⁵ CD4⁺ T cells were incubated in the presence of A26 Fab-dsFv (final concentration range 10 μg/mL-0.000056 μg/mL (136.6 nM-0.000765 nM)) for 30 minutes at 4° C. OX40L (biotinylated CD252 muCD8, Ancell) was added at a final concentration of 2 μg/mL and incubated for a further 30 minutes at 4° C. Cells were washed and OX40L binding detected by incubation with PE-labelled streptavadin (Jackson Immunoresearch) prior to analysis by flow cytometry using a FACS Canto (Becton Dickinson). A matched non-OX40 binding Fab-dsFv was used as a control. The inhibition curve was analysed by non-linear regression (Graphpad Prism®) to determine the IC₅₀. […]
# [2] = biological target: T1, Human OX40 expressed on the cell …; experiment: cell-based or functional assay
# [3] = biological target: T1, Human OX40 expressed on the cell …; experiment: cell-based or functional assay; remark: listed apart in the source
# [4] = biological target: T1, Human OX40 expressed on the cell …; experiment: flow cytometry competition on activated human CD4+OX40+ T cells; competitor OX40L (biotinylated CD252 muCD8) at 2 µg/mL
# Description: as §1, §2
# [5] = biological target: T1, Human OX40 expressed on the cell …; experiment: flow cytometry saturation binding on activated human CD4+ OX40+ T cells, with 5% HSA
# Description: (§3) Specific binding of antibody to receptor at equilibrium across a range of antibody concentrations was used to determine KD, assuming that only a very small fraction of antibody was bound to receptor at any point on the binding curve.
# (§4) PBMC were isolated by separation on a Ficoll gradient and activated with 4 μg/mL PHA-L for 3 days at 37° C., 5% CO₂, 100% humidity. Following this, CD4⁺ T cells were isolated by negative selection using magnetic beads (CD4⁺ T cell Isolation Kit II for Human; Miltenyi Biotec). Approximately 1×10⁵ cells were incubated in the presence of antibody in either Facs buffer (PBS/0.2% BSA/0.09% NaN3) or Facs buffer supplemented with 5% HSA, at 4° C. The final concentration of the antibody ranged from 48 nM-0.0005 nM. The cells were washed in PBS prior to analysis by flow cytometry using a FACScalibur (Becton Dickinson). […] The number of moles of bound antibody was calculated by using interpolated values from a standard curve generated from beads comprised of differing but known amounts of fluorescent dye. Geometric mean fluorescence values were determined in the flow cytometric analyses of cells and beads. Non-specific binding was subtracted from the A26 Fab-Fv values and the specific binding curve thus generated analysed by non-linear regression using a one-site binding equation (Graphpad Prism®) to determine the KD.
# [6] = biological target: T1, Human OX40 expressed on the cell …; experiment: flow cytometry saturation binding on activated human CD4+ OX40+ T cells, no HSA
# Description: as §3, §4
# [7] = biological target: T1, Human OX40 expressed on the cell …; experiment: flow cytometry binding on activated human CD4+ OX40+ T cells in 5% HSA, % maximal binding, mean of 4 or 5 donors
# Description: Binding of AlexaFluor488-labelled A26 Fab-Fv to activated human CD4⁺0 X40⁺ T cells was measured by flow cytometry across a 5-log concentration range.
# PBMC were isolated by separation on a Ficoll gradient and activated with 4 μg/mL PHA-L for 3 days at 37° C., 5% CO₂, 100% humidity. Following this, CD4⁺ T cells were isolated by negative selection using magnetic beads (CD4⁺ T cell Isolation Kit II for Human; Miltenyi Biotec). Approximately 1×10⁵ cells were incubated in the presence of antibody in either Facs buffer (PBS/0.2% BSA/0.09% NaN3) or Facs buffer supplemented with 5% HSA, at 4° C. The final concentration of the antibody ranged from 48 nM-0.0005 nM. The cells were washed in PBS prior to analysis by flow cytometry using a FACScalibur (Becton Dickinson). Titration data sets were also produced for isotype control antibodies for each A26 format to determine non specific binding. The number of moles of bound antibody was calculated by using interpolated values from a standard curve generated from beads comprised of differing but known amounts of fluorescent dye. Geometric mean fluorescence values were determined in the flow cytometric analyses of cells and beads. Non-specific binding was subtracted from the A26 Fab-Fv values and the specific binding curve thus generated analysed by non-linear regression using a one-site binding equation (Graphpad Prism®) to determine the KD.
# [8] = biological target: T2, Human OX40 (soluble analyte in BIAcore); experiment: SPR (BIAcore T200), antibody captured by anti-human F(ab′)2, human OX40 as analyte; average of 4
# Description: (§5) BIA (Biamolecular Interaction Analysis) was performed using a BIAcore T200 (GE Healthcare). Affinipure F(ab′)₂ Fragment goat anti-human IgG, F(ab′)₂ fragment specific (Jackson ImmunoResearch) was immobilised on a CM5 Sensor Chip via amine coupling chemistry to a capture level of ≈5000 response units (RUs). HBS-EP buffer (10 mM HEPES pH 7.4, 0.15 M NaCl, 3 mM EDTA, 0.05% Surfactant P20, GE Healthcare) was used as the running buffer with a flow rate of 10 μL/min. A 10 μL injection of A26 Fab′ at 0.5 μg/mL or A26Fab-dsFv at 1 μg/mL was used for capture by the immobilised anti-human IgG-F(ab′)₂. Human OX40 was titrated over the captured A26 at various concentrations (25 nM to 1.5625 nM) at a flow rate of 30 μL/min. The surface was regenerated by 2×10 μL injection of 50 mM HCl, followed by a 5 μL injection of 5 mM NaOH at a flowrate of 10 μL/min. Background subtraction binding curves were analysed using the T200evaluation software (version 1.0) following standard procedures. Kinetic parameters were determined from the fitting algorithm.
# [9] = biological target: T3, Mouse Serum albumin (mouse, UniProt P07724 25-608); experiment: SPR (BIAcore T200), Fab-Fv captured by anti-human F(ab′)2, albumin as analyte; average of 3
# T3 construct: also called MSA
# Description: as §5, with “Fab-Fv” for “A26 Fab′”, “0.75” for “0.5 μg/mL or A26Fab-dsFv at 1”, “Serum Albumin (HSA), Mouse Serum albumin (MSA) and Cynomolgus Serum Albumin (CSA)” for “OX40”, “Fab-Fv” for “A26”, “(50” for “(25”, “6.25” for “1.5625”
# [10] = biological target: T4, Human Serum Albumin (human, UniProt P02768 25-609); experiment: as above
# T4 construct: also called HSA; HAS [sic]
# Description: as §5, with “Fab-Fv” for “A26 Fab′”, “0.75” for “0.5 μg/mL or A26Fab-dsFv at 1”, “Serum Albumin (HSA), Mouse Serum albumin (MSA) and Cynomolgus Serum Albumin (CSA)” for “OX40”, “Fab-Fv” for “A26”, “(50” for “(25”, “6.25” for “1.5625”
# [11] = biological target: T5, Cynomolgus Serum Albumin (cynomolgus, UniProt A2V9Z4 25-608); experiment: as above
# T5 construct: also called CSA
# Description: as §5, with “Fab-Fv” for “A26 Fab′”, “0.75” for “0.5 μg/mL or A26Fab-dsFv at 1”, “Serum Albumin (HSA), Mouse Serum albumin (MSA) and Cynomolgus Serum Albumin (CSA)” for “OX40”, “Fab-Fv” for “A26”, “(50” for “(25”, “6.25” for “1.5625”
IC50 (read off the curve) [1],Inhibition of IL-5 Production EC50 (human HDM in vitro assay) [2],Inhibition of IL-13 Production EC50 (human HDM in vitro assay) [2],EC50 for inhibition of human MLR proliferative response [3],EC50 [4],Kd [5],Kd [6],EC50 (read off the curve) [7],Kd [8],koff [8],kon [8],Kd [9],koff [9],kon [9],Kd [10],koff [10],kon [10],Kd [11],koff [11],kon [11],Binder
~0.7 nM,1.31 nM,0.928 nM,0.88 nM,0.739 nM,0.23 nM,0.322 nM,~0.2 nM,0.0484 nM,1.12e-05 s⁻¹,233000 M⁻¹ s⁻¹,–,–,–,–,–,–,–,–,–,"A26 Fab′-PEG (A26 Fab-40K PEG′ described in WO2010/096418) (Fab, V domains shown, 40K PEG; site of attachment not given) VH: EVQLVESGGGLVQPGGSLRLSCAASGFTFTNYGIHWIRQAPGKGLEWVASISPSGGLTYYRDSVKGRFTISRDDAKNSPYLQMNSLRAEDTAVYYCATGGEGIFDYWGQGTLVTVSS VL: DIQMTQSPSSLSASVGDRVTITCRATQSIYNALAWYQQKPGKAPKLLIYNANTLHTGVPSRFSASGSGTDSTLTISSLQPEDFATYYCQQYYDYPLTFGGGTKVEIKR"
~0.3 nM,0.68 nM,0.335 nM,0.25 nM,0.242 nM,0.068 nM,0.085 nM,~0.09 nM,≤ 0.0468 nM,≤ 1e-05 s⁻¹,218000 M⁻¹ s⁻¹,–,–,–,–,–,–,–,–,–,"A26 Fab′ (Fab, V domains shown) VH: EVQLVESGGGLVQPGGSLRLSCAASGFTFTNYGIHWIRQAPGKGLEWVASISPSGGLTYYRDSVKGRFTISRDDAKNSPYLQMNSLRAEDTAVYYCATGGEGIFDYWGQGTLVTVSS VL: DIQMTQSPSSLSASVGDRVTITCRATQSIYNALAWYQQKPGKAPKLLIYNANTLHTGVPSRFSASGSGTDSTLTISSLQPEDFATYYCQQYYDYPLTFGGGTKVEIKR"
–,–,–,–,–,–,–,–,–,–,–,4.16 nM,0.000368 s⁻¹,88600 M⁻¹ s⁻¹,2.93 nM,0.000163 s⁻¹,58400 M⁻¹ s⁻¹,2.66 nM,0.000189 s⁻¹,71000 M⁻¹ s⁻¹,"A26 Fab-dsFv (645gH5gL4) (bispecific antibody, also called A26 Fab-Fv; Fab-Fv) heavy: EVQLVESGGGLVQPGGSLRLSCAASGFTFTNYGIHWIRQAPGKGLEWVASISPSGGLTYYRDSVKGRFTISRDDAKNSPYLQMNSLRAEDTAVYYCATGGEGIFDYWGQGTLVTVSSASTKGPSVFPLAPSSKSTSGGTAALGCLVKDYFPEPVTVSWNSGALTSGVHTFPAVLQSSGLYSLSSVVTVPSSSLGTQTYICNVNHKPSNTKVDKKVEPKSCSGGGGSGGGGTGGGGSEVQLLESGGGLVQPGGSLRLSCAVSGIDLSNYAINWVRQAPGKCLEWIGIIWASGTTFYATWAKGRFTISRDNSKNTVYLQMNSLRAEDTAVYYCARTVPGYSTAPYFDLWGQGTLVTVSS light: DIQMTQSPSSLSASVGDRVTITCRATQSIYNALAWYQQKPGKAPKLLIYNANTLHTGVPSRFSASGSGTDSTLTISSLQPEDFATYYCQQYYDYPLTFGGGTKVEIKRTVAAPSVFIFPPSDEQLKSGTASVVCLLNNFYPREAKVQWKVDNALQSGNSQESVTEQDSKDSTYSLSSTLTLSKADYEKHKVYACEVTHQGLSSPVTKSFNRGECGGGGSGGGGSGGGGSDIQMTQSPSSVSASVGDRVTITCQSSPSVWSNFLSWYQQKPGKAPKLLIYEASKLTSGVPSRFSGSGSGTDFTLTISSLQPEDFATYYCGGGYSSISDTTFGCGTKVEIKRT"
